No end group written: not given here.
B1: ATCUN(GSH)‐SpyTag002 (peptide)
peptide: GSHVPTIVMVDAYKRYK
notes: SpyTag002 peptide with an N-terminal GSH ATCUN copper site; also called ST‐A1; ST; source: synthetic peptide (solid‐phase peptide synthesis, RP‐HPLC)
B2: ATCUN(DAH)‐SpyTag002 (peptide)
peptide: DAHVPTIVMVDAYKRY-NH2
notes: SpyTag002 peptide with an N-terminal DAH ATCUN copper site; lacks the last lysine and ends with an amidated tyrosine; also called ST‐A2; ST; source: synthetic peptide (solid‐phase peptide synthesis, RP‐HPLC)

Biological target: T1, SpyCatcher002‐mut (H26Q H62Q), cleaved with TEV protease
T1 construct: Second-generation SpyCatcher (SC002) redesigned with H26Q and H62Q; also called SC1m; SCm; source: recombinant, purified; not shown: HisTag, N-terminal, cleaved
Assay: LC-MS of the covalent adduct; 25 μM each in 20 mM HEPES, pH 7.4, room temperature, injected after 5 min; isopeptide-bonded ST/SC adduct detected by MS; repeated with Cu2+ without effect on adduct formation
Settings: both partners purified

T1 sequence (chain, as listed by the source): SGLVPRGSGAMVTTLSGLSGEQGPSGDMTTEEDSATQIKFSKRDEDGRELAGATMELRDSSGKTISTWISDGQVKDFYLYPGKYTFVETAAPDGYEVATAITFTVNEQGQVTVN

Row | Binder | binding result
1 | B1 | binds
2 | B2 | binds

Source: publication PMC12278347, “Exploiting SpyTag/SpyCatcher Technology to Design New Artificial Catalytic Copper Proteins” (Chembiochem, 2025)
